Reference: paper PMC9513391, “Crystal structure of the α-ketoglutarate-dependent non-heme iron oxygenase CmnC in capreomycin biosynthesis and its engineering to catalyze hydroxylation of the substrate enantiomer” (Frontiers in Chemistry, 2022)

Molecular target: the molecule itself
Experiment: crystal structure; CmnC apo and soaked complexes (L-Arg, L-hArg, alpha-KG, L-Arg/alpha-KG), space group I222, two chains in the asymmetric unit; apo crystals from 200 mM ammonium acetate, 24% v/v PEG 400, 0.1 M sodium citrate pH 5.5, 20°C

B1: CmnC (enzyme)
chain: MTAIREIRLSEPESAQAALLALECAQRYAEPDSADFLADAAVLAHDLPRAVRREVERARLDDRLHALVVRGNDVDQDALGPTPPHWRQARTAASRRYGFLLVLYASLLGDVVGWATQQDGRVVTDVLPIEGQEDSLVSSSSSVELGWHTEDAFSPYRADYVGLFSLRNPDSVATTVAGLDPDLVGPAVVDVLFGERFHIRPDNSHLPTHNSGGRLSDYFAGIVEAVENPRAVSILRGHRDAPQLCVDSDFTTAVDGDAEAAGALDTLIKHLGGALYEVVLGPGDVAFLDNRNVVHGRRPFRARFDGTDRWLKRINVTADLRKSRAARRDAQARVLGEA
notes: CmnC, alpha-ketoglutarate-dependent non-heme iron oxygenase of capreomycin biosynthesis; gene cmnC amplified from genomic DNA of the capreomycin producer (ATCC 23892) and subcloned into pET28a; also called CmnC^apo; wild-type CmnC
Question: With B1 as the protein, how does the “stoichiometry N” value read?
Answer: 2
